In patent US20150210766A1 (SAMSUNG ELECTRONICS, published 2015):
Values belong to the binder of their own block, whether it stands above or below them.

Tests used:
[1] = target: Her3-Fc (R&D Systems) (UniProt P21860); test: SPR, Biacore T100; bispecific antibody captured (about 90 to 120 RU) by human Fab binder on a CM5 chip, Her3-Fc injected at various concentrations
[2] = target: T1, human c-Met/Fc fusion protein (R&D Systems) (human, UniProt P08581 25-932); test: ELISA, human c-Met/Fc fusion protein coated on the plate, hybridoma culture added
T1 construct: Bought reagent; also called human c-Met/Fc protein; not shown: Fc part of the bought fusion protein, not described
T1 sequence (P08581 25-932 limits assumed): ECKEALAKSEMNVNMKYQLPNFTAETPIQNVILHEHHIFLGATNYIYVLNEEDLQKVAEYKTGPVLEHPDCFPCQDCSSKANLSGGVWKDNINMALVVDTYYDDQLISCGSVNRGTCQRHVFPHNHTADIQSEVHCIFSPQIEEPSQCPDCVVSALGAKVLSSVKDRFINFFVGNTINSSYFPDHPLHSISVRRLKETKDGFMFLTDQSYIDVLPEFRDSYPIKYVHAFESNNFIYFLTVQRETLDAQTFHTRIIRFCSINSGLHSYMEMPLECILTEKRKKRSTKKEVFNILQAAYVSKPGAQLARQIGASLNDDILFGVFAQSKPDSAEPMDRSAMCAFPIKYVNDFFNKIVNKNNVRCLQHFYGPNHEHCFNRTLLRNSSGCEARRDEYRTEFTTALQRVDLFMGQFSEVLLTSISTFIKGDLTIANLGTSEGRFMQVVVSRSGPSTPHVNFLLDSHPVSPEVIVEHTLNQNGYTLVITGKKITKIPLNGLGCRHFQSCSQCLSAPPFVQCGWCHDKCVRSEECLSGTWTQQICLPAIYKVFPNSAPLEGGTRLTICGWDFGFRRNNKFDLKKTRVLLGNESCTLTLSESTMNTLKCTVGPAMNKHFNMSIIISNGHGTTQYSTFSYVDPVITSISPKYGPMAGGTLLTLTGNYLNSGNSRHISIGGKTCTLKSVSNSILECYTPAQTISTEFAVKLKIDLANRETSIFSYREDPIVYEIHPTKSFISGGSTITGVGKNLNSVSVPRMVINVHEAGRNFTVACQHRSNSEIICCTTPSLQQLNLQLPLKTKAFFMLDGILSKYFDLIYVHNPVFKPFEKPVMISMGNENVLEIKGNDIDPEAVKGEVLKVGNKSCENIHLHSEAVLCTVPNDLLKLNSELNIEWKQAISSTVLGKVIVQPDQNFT
Procedure: Human c-Met/Fc fusion protein was seeded in an amount of […] (2 μg/mL)/well to microtiter plates and allowed to adhere to the surface of each well. The […] that remained unbound was removed by washing.
The hybridoma cell culture obtained in Reference Example 1.1.2 was added in an amount of […] to each well of the plates and incubated for 1 hour. The cells remaining unreacted were washed out with a sufficient amount of Tris-buffered saline and Tween 20 (TBST). Goat anti-mouse IgG-horseradish peroxidase (HRP) was added to the plates and incubated for 1 hour at room temperature. The plates were washed with a sufficient amount of TBST, followed by reacting the peroxidase with a substrate (OPD). Absorbance at 450 nm was measured on an ELISA reader.

Chain of Her3-Fc (R&D Systems) (P21860 20-643 limits assumed): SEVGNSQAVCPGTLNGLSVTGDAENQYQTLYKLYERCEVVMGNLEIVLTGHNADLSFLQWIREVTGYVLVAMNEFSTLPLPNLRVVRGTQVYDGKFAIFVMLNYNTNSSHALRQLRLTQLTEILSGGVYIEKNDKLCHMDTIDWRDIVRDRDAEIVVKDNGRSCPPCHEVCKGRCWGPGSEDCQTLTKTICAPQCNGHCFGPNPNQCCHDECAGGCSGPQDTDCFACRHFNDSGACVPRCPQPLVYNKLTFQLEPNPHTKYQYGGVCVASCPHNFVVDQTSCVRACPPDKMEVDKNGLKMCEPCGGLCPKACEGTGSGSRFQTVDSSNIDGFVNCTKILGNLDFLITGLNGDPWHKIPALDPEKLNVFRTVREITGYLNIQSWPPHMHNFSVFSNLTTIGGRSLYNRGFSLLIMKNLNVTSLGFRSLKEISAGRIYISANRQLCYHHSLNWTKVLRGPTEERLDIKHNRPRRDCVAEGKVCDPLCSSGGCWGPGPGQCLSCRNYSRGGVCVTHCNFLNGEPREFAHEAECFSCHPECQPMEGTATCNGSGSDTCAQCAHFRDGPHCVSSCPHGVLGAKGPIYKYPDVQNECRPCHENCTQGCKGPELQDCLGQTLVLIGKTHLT

Kd [1]: 550 pM
B1: MH3-05, anti-c-Met/anti-Her3 bispecific antibody in which the modified anti-Her3 scFv is fused at the c-terminal of L3-1Y-IgG2 (bispecific antibody, part only; not given: nothing needed for Her3 binding, not shown: another chain or arm of the molecule; small tags and cut ends)
heavy: EVQLVESGGGLVQPGGSLRLSCAASGFTFTDYYMSWVRQAPGKGLEWLGFIRNKANGYTTEYSASVKGRFTISRDNSKNTLYLQMNSLRAEDTAVYYCARDNWFAYWGQGTLVTVSSASTKGPSVFPLAPCSRSTSESTAALGCLVKDYFPEPVTVSWNSGALTSGVHTFPAVLQSSGLYSLSSVVTVPSSNFGTQTYTCNVDHKPSNTKVDKTVERKCCVECPPCPAPPVAGPSVFLFPPKPKDTLMISRTPEVTCVVVDVSHEDPEVQFNWYVDGVEVHNAKTKPREEQFNSTFRVVSVLTVVHQDWLNGKEYKCKVSNKGLPAPIEKTISKTKGQPREPQVYTLPPSREEMTKNQVSLTCLVKGFYPSDIAVEWESNGQPENNYKTTPPMLDSDGSFFLYSKLTVDKSRWQQGNVFSCSVMHEALHNHYTQKSLSLSPGKGGGGSGGGGSQVQLQESGGGLVKPGGSLRLSCAASGFTFSSYSMNWVRQAPGKGLEWVSSISSSSSYIYYADSVKGRFTISRDNAKNSLYLQMNSLRAEDTAVYYCAREDLTPFDYWGQGTLVTVSS
VL: LPVLTQPPSVSVAPGQTARITCGGDNIGSKSVHWYQQKPGQAPVLVVYDDSDRPSGIPERISGSNSGNTATLTISRVEAGDEADFYCQVWDNSVDLLFGGGTKLTVL
light: DIQMTQSPSSLSASVGDRVTITCKSSQSLLASGNQNNYLAWYQQKPGKAPKMLIIWASTRVSGVPSRFSGSGSGTDFTLTISSLQPEDFATYYCQQSYSRPYTFGQGTKVEIKRTVAAPSVFIFPPSDEQLKSGTASVVCLLNNFYPREAKVQWKVDNALQSGNSQESVTEQDSKDSTYSLSSTLTLSKADYEKHKVYACEVTHQGLSSPVTKSFNRGEC
modifications: In the real molecule the scFv-VL chain is joined covalently to the C-terminus of the heavy chain's VH (SEQ 115) through the undisclosed linker. It is written as a separate chain only because that linker has no letters.

binding result [2]: binds
B2: AbF46, mouse monoclonal antibody to c-Met (hybridoma KCLRF-BP-00220) (antibody, V domains shown)
VH: EVKLVESGGGLVQPGGSLRLSCATSGFTFTDYYMSWVRQPPGKALEWLGFIRNKANGYTTEYSASVKGRFTISRDNSQSILYLQMDTLRAEDSATYYCARDNWFAYWGQGTLVTVSA
VL: DILMTQSPSSLTVSAGEKVTMSCKSSQSLLASGNQNNYLAWHQQKPGRSPKMLIIWASTRVSGVPDRFIGSGSGTDFTLTINSVQAEDLAVYYCQQSYSAPLTFGAGTKLELK
notes: Tested as hybridoma culture in the screening ELISA; the single clone selected produces AbF46; also called mouse antibody AbF46
